Test results from patent US6294341, “Method for detecting a substance having an activity to inhibit HIV infection using immunoassay and variant protein used for said method” (Korea Institute of Science and Technology, dated 2001).

Target: Trx-N variant protein (homo sapiens and HIV hybrid)
Experiment: immunoassay on plate-adsorbed Trx-N, detection with anti-GST antibody

B1: glutathione S-transferase (GST), unmodified (other)
chain: MACGHVKLIYFNGRGRAEPIRMILVAAGVEFEDERIEFQDWPKIKPTIPGGRLPIVKITDKRGDVKTMSESLAIARFIARKHNMMGDTDDEYYIIEKMIGQVEDVESEYHKTLMKPPEEKEKISKEILNGKVPILLQAICETLKESTGNLTVGDKVTLADVVLIASIDHITDLDKEFLTGKYPEIHKHRKHLLATSPKLAKYLSERHATAFLVPRGSPGIHRD
binding result: no binding
